# Source: the RNAGym collection of RNA variant scans (doi:10.7554/elife.90254)
# B1: OR4K15 (parent)
# chain: GUUAACGGUCAUAGGCCAUGGAAACUAGGAGCACCAUUUCGCUGCCAGUGAAGAAAUGAACAAAGAAAAUCUGGGCCAGGCAGGCAUCAAAAGAAAUAGUCUUGCGCUCAACCAGAAAGUCUGUAAUCAUUUUAAGGGUA
# Variants of: B1
# Test: self-cleavage, relative activity (ratio to wild type); higher = more cleavage; in vitro, sequencing; the parent is a self-cleaving ribozyme
row,Variant,self-cleavage
1,U57C A66G,0.31
2,A55G G84A,2.46
3,A54G G137U,1.44
4,A55U A56U,0.55
5,A55U A56G,1.38
6,U57A U87C,0.92
7,A55G G123U,2.01
8,A55G G123A,1.61
9,A56G U72C,0.28
10,A56G U72A,0.26
11,A55U A116G,0.88
12,A55G A95G,1.92
13,A54U A59G,1.75
14,A55G C113U,0.03
15,A55C U72C,0.24
16,A56G A69G,1.08
17,U57A A110U,1
18,U57A A110C,0.17
19,U57A U130C,0.81
20,A54C A116G,0.17
21,A55U A96G,1.61
22,A56G A134G,1.2
23,A54U A91G,0.86
24,A54G A140U,1.25

row,Variant,self-cleavage
1,A55G A96G,0.83
2,A55C A59G,0.36
3,A56G U127C,0.96
4,A56G A91U,1.21
5,A56G A91G,0.51
6,A55G U120A,1.67
7,A56G C109A,0.34
8,A54G U131C,1.3
9,A55G G106A,0.01
10,A54G A90U,1.57
11,U57C A78U,0.26
12,U57C A78G,0.23
13,U57A A125G,0.52
14,A54G A118U,0.84
15,A54G A118G,1.08
16,A56G A98U,2.25
17,A56G A98G,0.57
18,U57A A111G,0.02
19,A56G A111U,0
20,A55U C109U,0.31
21,A54U A89C,1.5
22,A54U A89G,1.42
23,A56G A90C,0.21
24,A56G A90U,1.83

row,Variant,self-cleavage
1,A55C U102C,1.41
2,A55G A116G,0.63
3,A56G U130C,1.63
4,A55G A67U,1.53
5,A55G A67G,1.21
6,A54U A118G,0.95
7,A54G A95U,1.53
8,A55G A118G,1.23
9,A55G A110G,0.12
10,U57A A140G,1.3
11,A55G G74A,0.31
12,A55U A117G,1.77
13,A55U A117U,0.72
14,A55G C88U,1.02
15,G53U U70C,1.29
16,A54U A92G,1.54
17,A56G G83A,1.67
18,U57A U139C,0.25
19,A54G A134U,1.32
20,U57A U97C,1.78
21,A56C A125C,0.7
22,A55G A56G,1.31
23,A55G A62G,0.75
24,U57A A117G,1.69

row,Variant,self-cleavage
1,A54U U124A,0.86
2,U57C A67G,0.83
3,A55U A68G,1.44
4,U57C A96G,1.17
5,A54G A78G,0.3
6,A54G A114U,0.07
7,A54G A114C,0.09
8,A54G A114G,0.4
9,A56G A64G,1.44
10,A55G U100C,1.93
11,A55G U100A,0.48
12,U57C A90G,0.97
13,U57C A90U,1.51
14,A54U A95G,2.47
15,A54G U70C,0.61
16,A56G A110U,1.05
17,A56U U103A,0.25
18,A56G A63G,0.85
19,A54G G106A,0.02
20,A54G A66U,1.14
21,A55U A91G,1.73
22,A54U A67G,0.82
23,U57A U122C,0.75
24,A55G A86U,1.26

row,Variant,self-cleavage
1,A55G A86C,1.66
2,A56C A82G,0.56
3,A56G C88U,1.72
4,A55G U72G,0.25
5,A54G A126G,0.64
6,A56U A91G,2.02
7,A56G U87C,0.74
8,A56G U87G,0.32
9,U57A U70A,0.62
10,A54G U57C,0.65
11,A54G U57G,0.2
12,A56G A68U,1.86
13,A56G A68G,1.51
14,A54U U72C,0.09
15,A54G G84A,2.33
16,U57C A94U,1.23
17,A55G U102C,1.75
18,A56G U102C,1.67
19,A56G U102G,0.89
20,A55G U127C,0.82
21,A54G U87A,1.79
22,A54G U87C,0.9
23,A56G A94G,1.29
24,A54U A94G,1.64

row,Variant,self-cleavage
1,U57C A91G,0.84
2,A55G A59G,1.17
3,A54U A64U,1.98
4,A54G C85U,1.39
5,A54U A86G,0.36
6,A54C U87C,1.45
7,A56U A68G,0.34
8,A54G U102A,0.17
9,A54G U102C,1.41
10,A56U A64G,2.32
11,A54U A90G,0.85
12,A56U A66U,0.42
13,A54C U122C,0.42
14,A55G U108C,0.01
15,A54G U97C,1.37
16,A54G U124A,0.9
17,A55U U100A,0.82
18,A55U U100C,2.69
19,A55G C101U,0.38
20,A54G U132C,1.28
21,A56G A140G,1.78
22,A54U U130C,1.62
23,A55C U124C,0.95
24,A54U U133C,2.23

row,Variant,self-cleavage
1,A54U U133A,1.49
2,A56G A96G,1.68
3,U57A A129G,0.9
4,U57A G138A,1.33
5,A54U U122A,1.45
6,A54U U122C,1.27
7,A56C A117G,1.17
8,A56U U87C,1.05
9,A54U A116U,0.42
10,A56G U97C,0.4
11,A54G A86G,1.28
12,A55U G58U,1.98
13,A56U A63G,2.61
14,U57C A86G,0.94
15,A55G C107A,0.02
16,A55G C107U,0.05
17,A54U A82G,0.64
18,A54U A82C,0.13
19,A56G C105U,0.12
20,A55G A91U,2.07
21,A55G A94G,1.39
22,A54G A60U,1.59
23,A54G A60G,1.02
